B1: scFv; the commonest letter at each place (parent)
chain 1: EVKLDETGGGLVQPGRPMKLSCVASGFTFSDYWMNWVRQSPEKGLEWVAQIRNKPYNYETYYSDSVKGRFTISRDDSKSSVYLQMNNLRVEDMGIYYCTGSYYGMDYWGQGTSVTVS
chain 2: DVVMTQTPLSLPVSLGDQASISCRSSQSLVHSNGNTYLRWYLQKPGQSPKVLIYKVSNRFSGVPDRFSGSGSGTDFTLKISRVEAEDLGVYFCSQSTHVPWTFGGGTKLEIK

How the values were obtained:
[1] = variants of: B1; assay: Kd (Tite-Seq); conditions: with fluorescein; format: scFv 4-4-20, heavy + light
[2] = variants of: B1; assay: yeast surface expression (ratio to wild type); higher = more expressed; conditions: format: scFv 4-4-20, heavy + light

Variant	Kd [1] [µM]	yeast surface expression [2]
chain 1 EVKLDETGGGLVQPGRPMKLSCVASGFTFSDYWMNTLRQSPEKGLEWVAQIRNKPYNYETYYSDSVKGRFTISRDDSKSSVYLQMNNLRVEDMGIYYCTGSYYGMDYWGQGTSVTVS chain 2 DVVMTQTPLSLPVSLGDQASISCRSSQSLVHSNGNTYLRWYLQKPGQSPKVLIYKVSNRFSGVPDRFSGSGSGTDFTLKISRVEAEDLGVYFCSQSTHVPWTFGGGTKLEIK [chain 1 W36T V37L]	≥ 10	0.507
chain 1 EVKLDETGGGLVQPGRPMKLSCVASGFTFSDYLMNWVRQSPEKGLEWVAQIRNKPYNYETYYSDSVKGRFTISRDDSKSSVYLQMNNLRVEDMGIYYCTGSYYGMDYWGQGTSVTVS chain 2 DVVMTQTPLSLPVSLGDQASISCRSSQSLVHSNGNTYLRWYLQKPGQSPKVLIYKVSNRFSGVPDRFSGSGSGTDFTLKISRVEAEDLGVYFCSQSTHVPWTFGGGTKLEIK [chain 1 W33L]	≥ 10	0.824
chain 1 EVKLDETGGGLVQPGRPMKLSCVASGFTFDDYWMQWVRQSPEKGLEWVAQIRNKPYNYETYYSDSVKGRFTISRDDSKSSVYLQMNNLRVEDMGIYYCTGSYYGMDYWGQGTSVTVS chain 2 DVVMTQTPLSLPVSLGDQASISCRSSQSLVHSNGNTYLRWYLQKPGQSPKVLIYKVSNRFSGVPDRFSGSGSGTDFTLKISRVEAEDLGVYFCSQSTHVPWTFGGGTKLEIK [chain 1 S30D N35Q]	≥ 10	0.883
chain 1 EVKLDETGGGLVQPGRPMKLSCVASGFTFSDYWMNWVRQSPEKGLEWVAQIRNKPYNYETYYSDSVKGRFTISRDDSKSSVYLQMNNLRVEDMGIYYCTNSDYGMDYWMQGTSVTVS chain 2 DVVMTQTPLSLPVSLGDQASISCRSSQSLVHSNGNTYLRWYLQKPGQSPKVLIYKVSNRFSGVPDRFSGSGSGTDFTLKISRVEAEDLGVYFCSQSTHVPWTFGGGTKLEIK [chain 1 G100N Y102D G109M]	≥ 10	0.159
chain 1 EVKLDETGGGLVQPGRPMKLSCVASGFTFSDYWMNWVRQSPEKGLEWVAQIRNKPYNYETYYSDSVKGRFTISRDDSKSSVYLQMNNLRVEDMGIYYCTGFYYGMDYSSQGTSVTVS chain 2 DVVMTQTPLSLPVSLGDQASISCRSSQSLVHSNGNTYLRWYLQKPGQSPKVLIYKVSNRFSGVPDRFSGSGSGTDFTLKISRVEAEDLGVYFCSQSTHVPWTFGGGTKLEIK [chain 1 S101F W108S G109S]	≥ 10	0.242
chain 1 EVKLDETGGGLVQPGRPMKLSCVASGFTFSDYWNNYVRQSPEKGLEWVAQIRNKPYNYETYYSDSVKGRFTISRDDSKSSVYLQMNNLRVEDMGIYYCTGSYYGMDYWGQGTSVTVS chain 2 DVVMTQTPLSLPVSLGDQASISCRSSQSLVHSNGNTYLRWYLQKPGQSPKVLIYKVSNRFSGVPDRFSGSGSGTDFTLKISRVEAEDLGVYFCSQSTHVPWTFGGGTKLEIK [chain 1 M34N W36Y]	≥ 10	0.542
chain 1 EVKLDETGGGLVQPGRPMKLSCVASGFRFSDGWMNWVRQSPEKGLEWVAQIRNKPYNYETYYSDSVKGRFTISRDDSKSSVYLQMNNLRVEDMGIYYCTGSYYGMDYWGQGTSVTVS chain 2 DVVMTQTPLSLPVSLGDQASISCRSSQSLVHSNGNTYLRWYLQKPGQSPKVLIYKVSNRFSGVPDRFSGSGSGTDFTLKISRVEAEDLGVYFCSQSTHVPWTFGGGTKLEIK [chain 1 T28R Y32G]	0.0132	0.959
chain 1 EVKLDETGGGLVQPGRPMKLSCVASGFTFSDYWMNWVRQSPEKGLEWVAQIRNKPYNYETYYSDSVKGRFTISRDDSKSSVYLQMNNLRVEDMGIYYCTISYYGMDYKGQGTSVTVS chain 2 DVVMTQTPLSLPVSLGDQASISCRSSQSLVHSNGNTYLRWYLQKPGQSPKVLIYKVSNRFSGVPDRFSGSGSGTDFTLKISRVEAEDLGVYFCSQSTHVPWTFGGGTKLEIK [chain 1 G100I W108K]	≥ 10	0.698
chain 1 EVKLDETGGGLVQPGRPMKLSCVASGFTFSDYWMNWVRQSPEKGLEWVAQIRNKPYNYETYYSDSVKGRFTISRDDSKSSVYLQMNNLRVEDMGIYYCTGSAYGMDYWGQGTSVTVS chain 2 DVVMTQTPLSLPVSLGDQASISCRSSQSLVHSNGNTYLRWYLQKPGQSPKVLIYKVSNRFSGVPDRFSGSGSGTDFTLKISRVEAEDLGVYFCSQSTHVPWTFGGGTKLEIK [chain 1 Y102A]	0.00162	1.17
chain 1 EVKLDETGGGLVQPGRPMKLSCVASGFTFSDYWMNWVRQSPEKGLEWVAQIRNKPYNYETYYSDSVKGRFTISRDDSKSSVYLQMNNLRVEDMGIYYCTGFYYGMDYKGQGTSVTVS chain 2 DVVMTQTPLSLPVSLGDQASISCRSSQSLVHSNGNTYLRWYLQKPGQSPKVLIYKVSNRFSGVPDRFSGSGSGTDFTLKISRVEAEDLGVYFCSQSTHVPWTFGGGTKLEIK [chain 1 S101F W108K]	≥ 10	0.217
chain 1 EVKLDETGGGLVQPGRPMKLSCVASGFTFSDYWMNWVRQSPEKGLEWVAQIRNKPYNYETYYSDSVKGRFTISRDDSKSSVYLQMNNLRVEDMGIYYCTMSYYGMDYWMQGTSVTVS chain 2 DVVMTQTPLSLPVSLGDQASISCRSSQSLVHSNGNTYLRWYLQKPGQSPKVLIYKVSNRFSGVPDRFSGSGSGTDFTLKISRVEAEDLGVYFCSQSTHVPWTFGGGTKLEIK [chain 1 G100M G109M]	≥ 10	0.274
chain 1 EVKLDETGGGLVQPGRPMKLSCVASGFTFSDYWMNMPRQSPEKGLEWVAQIRNKPYNYETYYSDSVKGRFTISRDDSKSSVYLQMNNLRVEDMGIYYCTGSYYGMDYWGQGTSVTVS chain 2 DVVMTQTPLSLPVSLGDQASISCRSSQSLVHSNGNTYLRWYLQKPGQSPKVLIYKVSNRFSGVPDRFSGSGSGTDFTLKISRVEAEDLGVYFCSQSTHVPWTFGGGTKLEIK [chain 1 W36M V37P]	≥ 10	0.36

— the FLAb antibody collection (doi:10.7554/elife.23156)
